T1: monkey TIM-3 extracellular domain protein with hFc tag (cTIM-3-hFc) (monkey)
T1 construct: not shown: human IgG Fc fragment (hFc) of the pCpC vector
T1 chain: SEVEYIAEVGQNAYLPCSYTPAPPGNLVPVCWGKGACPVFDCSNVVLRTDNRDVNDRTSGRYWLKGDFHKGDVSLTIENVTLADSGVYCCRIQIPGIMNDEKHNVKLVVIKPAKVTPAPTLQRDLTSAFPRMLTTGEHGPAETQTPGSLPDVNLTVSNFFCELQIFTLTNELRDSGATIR

T2: monkey TIM-3 on CHOK1 stable cell line (CHOK1-cTIM-3) (monkey)
T2 chain: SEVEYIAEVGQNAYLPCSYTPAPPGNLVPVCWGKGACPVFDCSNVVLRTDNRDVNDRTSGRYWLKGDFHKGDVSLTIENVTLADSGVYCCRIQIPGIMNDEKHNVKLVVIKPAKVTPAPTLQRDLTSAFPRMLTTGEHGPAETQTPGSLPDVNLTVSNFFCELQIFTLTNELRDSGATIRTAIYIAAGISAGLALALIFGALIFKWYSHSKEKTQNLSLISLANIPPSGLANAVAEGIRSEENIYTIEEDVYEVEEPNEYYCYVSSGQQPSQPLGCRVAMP

T3: murine TIM-3 extracellular domain protein with hFc tag (mTIM-3-hFc) (mouse, UniProt Q8VIM0 29-191)
T3 construct: also called mouse TIM-3 extracellular domain protein; not shown: human IgG Fc fragment (hFc) of the pCpC vector
T3 chain: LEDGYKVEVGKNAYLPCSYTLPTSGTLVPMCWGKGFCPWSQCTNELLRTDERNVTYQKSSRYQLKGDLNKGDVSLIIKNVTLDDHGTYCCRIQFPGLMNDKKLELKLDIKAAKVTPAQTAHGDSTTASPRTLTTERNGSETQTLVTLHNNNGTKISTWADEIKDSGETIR


How the values were obtained:
[1] = molecular target: T1, monkey TIM-3 extracellular domain …; assay: ELISA, coated monkey TIM-3 ECD protein, 0 nM antibody
[2] = molecular target: T1, monkey TIM-3 extracellular domain …; assay: ELISA, coated monkey TIM-3 ECD protein, 0.0067 nM antibody
[3] = molecular target: T2, monkey TIM-3 on CHOK1 stable cell line …; assay: FACS, CHOK1-cTIM-3 cells, 1.6 nM antibody
[4] = molecular target: T3, murine TIM-3 extracellular domain …; assay: ELISA, coated mouse TIM-3 ECD protein, 0.0001 nM antibody

OD450 [1] | OD450 [2] | Mean fluorescence intensity [3] | OD450 [4] | Binder
0.13 | 0.33 | 333 | 0.21 | 18D2H2 fully human TIM-3 antibody (human IgG4, kappa) (antibody, V domains shown) VH: EVQLVESGGDLVQPGGSLRLSCAASGFTFSTYWMTWVRQAPGRGLEWVANIKQDGSAKYYVDSVKGRFTLSRDDAKNSLYLQMNSLRAEDTAVYYCARGSNWFDYWGQGTLVTVSS VL: ETVMTQSPATLSVSPGERATLSCRANQNVYSNLAWYQQKPGQAPRLLIYDASTRATGFPARFSGSGSGTEFTLTISSLQSEDFAVYYCQQYNNWPLTFGGGTKVEIK
0.17 | 0.37 | 266 | 0.23 | 34B6D8 fully human TIM-3 antibody (human IgG4, kappa) (antibody, V domains shown) VH: EVQLVESGGGLVQPGGSLRLSCAASGFTFSTYWMTWVRQAPGKRLEWVANIKQGGGDKYYVDSVKGRFTISTDNAKNSLYLQMNSLRAEDTAVYYCARGSNWFDPWGQGTLVTVSS VL: EIVMTQSPATLSMSPGERATLSCRASQSVYDNLAWYQQKPGQAPRLLIYGASTRATGIPARFSGSGSGTEFTLTISSLQSEDFALYYCQQYTHWPITFGQGTRLEIK
0.16 | 0.3 | 315 | 0.23 | 39E5H1 fully human TIM-3 antibody (human IgG4, kappa) (antibody, V domains shown) VH: EVQLVESGGGLVQPGGSLRLSCAASGFTFSSYWMSWVRQAPGKGLEWVANIKRGGSERYYVDSVKGRFTISGDNAKNSVYLQMNSLRAEDTAVYYCARGSNWFDPWGQGTLVTVSS VL: ETVMTQSPAILSVSPGERATLSCRASQSVYSNLAWYQQKLGQAPRLLIYDASTRATGIPARFSGSGSGTEFTLTISSLQSEDFAVYYCQQYNNWPITFGQGTRLEIK
